One substance from PMC4530019 can be followed below.

The assay has as its target cardiac ryanodine receptor (RyR2) (rat (endogenous in ventricular myocytes)) (UniProt B0LPN4).
Chain of UniProt B0LPN4 (B0LPN4 whole entry): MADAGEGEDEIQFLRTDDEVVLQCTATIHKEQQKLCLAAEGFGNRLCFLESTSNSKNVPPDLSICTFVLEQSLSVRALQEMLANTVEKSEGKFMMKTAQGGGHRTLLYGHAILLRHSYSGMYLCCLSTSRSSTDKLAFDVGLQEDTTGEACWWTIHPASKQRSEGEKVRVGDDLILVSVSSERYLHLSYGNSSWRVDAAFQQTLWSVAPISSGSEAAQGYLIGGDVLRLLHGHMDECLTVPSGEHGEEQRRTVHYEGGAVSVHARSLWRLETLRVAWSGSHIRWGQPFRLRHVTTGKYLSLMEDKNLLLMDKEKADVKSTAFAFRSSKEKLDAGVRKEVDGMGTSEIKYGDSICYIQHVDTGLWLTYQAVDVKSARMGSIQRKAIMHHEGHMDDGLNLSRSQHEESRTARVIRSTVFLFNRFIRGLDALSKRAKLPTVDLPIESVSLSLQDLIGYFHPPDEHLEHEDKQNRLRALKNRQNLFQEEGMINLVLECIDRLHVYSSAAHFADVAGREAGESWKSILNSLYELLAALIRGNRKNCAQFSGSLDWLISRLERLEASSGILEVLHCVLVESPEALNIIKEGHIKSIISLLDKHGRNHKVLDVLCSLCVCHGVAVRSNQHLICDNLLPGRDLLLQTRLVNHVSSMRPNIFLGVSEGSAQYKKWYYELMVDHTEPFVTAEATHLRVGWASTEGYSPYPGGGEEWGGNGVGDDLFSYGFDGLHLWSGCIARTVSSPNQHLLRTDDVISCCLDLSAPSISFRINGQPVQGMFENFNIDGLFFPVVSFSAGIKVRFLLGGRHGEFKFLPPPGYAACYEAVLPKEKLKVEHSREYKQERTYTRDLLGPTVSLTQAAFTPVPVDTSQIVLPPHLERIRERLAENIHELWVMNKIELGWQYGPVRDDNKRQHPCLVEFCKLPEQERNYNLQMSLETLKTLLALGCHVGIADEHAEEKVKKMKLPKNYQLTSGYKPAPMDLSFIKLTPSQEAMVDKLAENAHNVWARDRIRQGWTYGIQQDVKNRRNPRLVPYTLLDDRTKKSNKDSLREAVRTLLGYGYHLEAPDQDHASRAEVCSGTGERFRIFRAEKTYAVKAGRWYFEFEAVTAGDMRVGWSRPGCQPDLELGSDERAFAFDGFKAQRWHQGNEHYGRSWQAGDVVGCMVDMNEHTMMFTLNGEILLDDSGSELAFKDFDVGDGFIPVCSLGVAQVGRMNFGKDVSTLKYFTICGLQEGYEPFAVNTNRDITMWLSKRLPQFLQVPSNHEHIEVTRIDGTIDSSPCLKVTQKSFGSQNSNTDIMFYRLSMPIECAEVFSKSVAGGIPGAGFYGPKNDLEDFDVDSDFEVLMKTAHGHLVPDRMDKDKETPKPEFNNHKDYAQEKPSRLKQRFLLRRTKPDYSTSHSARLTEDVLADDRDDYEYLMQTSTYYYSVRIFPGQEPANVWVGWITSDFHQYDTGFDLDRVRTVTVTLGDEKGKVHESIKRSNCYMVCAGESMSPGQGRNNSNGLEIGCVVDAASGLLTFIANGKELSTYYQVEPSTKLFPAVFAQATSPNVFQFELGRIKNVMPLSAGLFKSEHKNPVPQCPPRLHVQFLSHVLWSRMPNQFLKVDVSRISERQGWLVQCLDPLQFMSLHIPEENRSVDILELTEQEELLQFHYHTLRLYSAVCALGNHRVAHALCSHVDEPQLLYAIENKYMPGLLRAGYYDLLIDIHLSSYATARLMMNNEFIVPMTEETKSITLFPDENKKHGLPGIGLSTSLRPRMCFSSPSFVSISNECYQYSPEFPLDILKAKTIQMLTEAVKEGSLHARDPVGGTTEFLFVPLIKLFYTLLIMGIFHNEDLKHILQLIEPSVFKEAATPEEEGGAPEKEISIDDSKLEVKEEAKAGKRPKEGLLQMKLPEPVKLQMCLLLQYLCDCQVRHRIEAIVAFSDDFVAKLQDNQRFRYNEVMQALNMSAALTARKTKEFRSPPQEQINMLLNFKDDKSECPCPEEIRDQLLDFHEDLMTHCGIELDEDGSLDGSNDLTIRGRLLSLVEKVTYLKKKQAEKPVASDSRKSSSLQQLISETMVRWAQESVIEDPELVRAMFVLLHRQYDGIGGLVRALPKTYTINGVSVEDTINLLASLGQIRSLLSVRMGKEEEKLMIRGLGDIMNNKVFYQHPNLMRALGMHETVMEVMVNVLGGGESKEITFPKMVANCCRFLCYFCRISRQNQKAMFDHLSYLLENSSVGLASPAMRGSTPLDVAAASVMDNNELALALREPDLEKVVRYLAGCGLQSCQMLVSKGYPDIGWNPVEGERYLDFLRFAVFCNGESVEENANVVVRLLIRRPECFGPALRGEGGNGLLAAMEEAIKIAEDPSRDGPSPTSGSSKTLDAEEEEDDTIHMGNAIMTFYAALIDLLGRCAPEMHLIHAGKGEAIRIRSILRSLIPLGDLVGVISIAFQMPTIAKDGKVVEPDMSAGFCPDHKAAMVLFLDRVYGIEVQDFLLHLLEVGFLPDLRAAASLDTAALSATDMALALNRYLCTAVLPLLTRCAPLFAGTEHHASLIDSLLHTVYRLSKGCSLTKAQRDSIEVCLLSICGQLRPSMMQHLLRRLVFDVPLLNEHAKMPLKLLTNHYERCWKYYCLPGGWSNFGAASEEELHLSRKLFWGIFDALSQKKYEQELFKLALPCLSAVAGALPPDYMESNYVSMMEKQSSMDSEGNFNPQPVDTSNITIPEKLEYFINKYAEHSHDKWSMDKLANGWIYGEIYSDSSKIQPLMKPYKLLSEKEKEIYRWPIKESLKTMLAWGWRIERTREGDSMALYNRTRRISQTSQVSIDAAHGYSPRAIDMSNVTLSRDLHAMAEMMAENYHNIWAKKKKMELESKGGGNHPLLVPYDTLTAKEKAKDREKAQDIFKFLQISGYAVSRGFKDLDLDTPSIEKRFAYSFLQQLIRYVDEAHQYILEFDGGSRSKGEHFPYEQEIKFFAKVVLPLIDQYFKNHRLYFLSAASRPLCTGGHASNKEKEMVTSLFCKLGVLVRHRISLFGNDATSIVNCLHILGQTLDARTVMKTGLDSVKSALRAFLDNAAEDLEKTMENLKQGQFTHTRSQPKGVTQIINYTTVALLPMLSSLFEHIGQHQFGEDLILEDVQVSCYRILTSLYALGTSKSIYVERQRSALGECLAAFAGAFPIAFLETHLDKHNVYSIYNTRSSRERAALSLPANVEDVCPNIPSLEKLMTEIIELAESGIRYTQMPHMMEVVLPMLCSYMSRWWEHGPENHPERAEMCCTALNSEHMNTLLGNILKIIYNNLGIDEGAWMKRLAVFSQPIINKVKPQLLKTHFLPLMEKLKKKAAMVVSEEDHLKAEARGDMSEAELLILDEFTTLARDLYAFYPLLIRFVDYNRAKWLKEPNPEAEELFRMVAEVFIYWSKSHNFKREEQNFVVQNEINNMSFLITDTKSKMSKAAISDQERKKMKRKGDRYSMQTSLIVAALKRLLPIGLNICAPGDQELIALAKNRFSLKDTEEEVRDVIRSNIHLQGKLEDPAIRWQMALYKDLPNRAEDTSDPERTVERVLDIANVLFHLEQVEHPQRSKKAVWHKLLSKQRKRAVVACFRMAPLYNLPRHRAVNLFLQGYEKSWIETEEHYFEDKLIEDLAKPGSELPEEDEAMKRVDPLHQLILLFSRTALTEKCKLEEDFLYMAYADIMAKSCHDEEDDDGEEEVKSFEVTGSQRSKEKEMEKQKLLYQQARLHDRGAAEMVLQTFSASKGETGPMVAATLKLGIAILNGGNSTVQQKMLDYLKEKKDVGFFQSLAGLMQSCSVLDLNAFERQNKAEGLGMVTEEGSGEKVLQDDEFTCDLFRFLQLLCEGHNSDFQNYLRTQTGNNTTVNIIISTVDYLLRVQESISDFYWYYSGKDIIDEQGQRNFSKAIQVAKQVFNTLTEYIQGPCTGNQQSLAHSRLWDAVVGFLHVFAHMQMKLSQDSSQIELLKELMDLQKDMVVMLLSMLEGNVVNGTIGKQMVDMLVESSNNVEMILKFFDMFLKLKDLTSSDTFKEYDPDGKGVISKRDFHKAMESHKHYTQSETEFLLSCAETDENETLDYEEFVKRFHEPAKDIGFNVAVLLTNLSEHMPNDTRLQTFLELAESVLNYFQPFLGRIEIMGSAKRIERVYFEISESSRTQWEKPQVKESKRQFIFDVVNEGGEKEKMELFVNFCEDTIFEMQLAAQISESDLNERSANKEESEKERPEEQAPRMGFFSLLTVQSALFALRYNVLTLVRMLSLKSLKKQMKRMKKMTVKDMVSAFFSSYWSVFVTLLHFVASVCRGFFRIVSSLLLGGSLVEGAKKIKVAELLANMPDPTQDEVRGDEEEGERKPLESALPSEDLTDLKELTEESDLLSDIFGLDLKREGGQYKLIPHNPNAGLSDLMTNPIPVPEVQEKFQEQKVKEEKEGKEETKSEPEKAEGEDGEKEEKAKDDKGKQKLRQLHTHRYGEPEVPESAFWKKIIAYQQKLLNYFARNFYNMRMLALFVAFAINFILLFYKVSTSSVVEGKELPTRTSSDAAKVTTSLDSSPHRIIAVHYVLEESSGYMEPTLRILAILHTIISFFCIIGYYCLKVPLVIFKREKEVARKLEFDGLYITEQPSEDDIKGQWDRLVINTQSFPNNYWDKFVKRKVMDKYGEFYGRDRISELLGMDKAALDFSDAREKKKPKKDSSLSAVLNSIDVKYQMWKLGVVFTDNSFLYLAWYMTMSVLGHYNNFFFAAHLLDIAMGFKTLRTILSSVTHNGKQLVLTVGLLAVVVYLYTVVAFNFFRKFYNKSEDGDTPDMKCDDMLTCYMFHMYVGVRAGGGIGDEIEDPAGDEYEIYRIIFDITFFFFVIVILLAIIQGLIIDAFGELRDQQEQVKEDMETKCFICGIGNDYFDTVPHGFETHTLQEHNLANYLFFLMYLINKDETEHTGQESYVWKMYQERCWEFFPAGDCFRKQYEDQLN

The substance “F-CaM pre-incubated in H2O2 (F-CaM^Ox) (from UniProt P0DP23 1-149) (natural protein)” came in with a percent reduction of specific Z-line binding against F-CaM that was not oxidized of 20%.
